Experimental data taken from patent US20260103529A1, “Amino Acid Sequences Directed Against the Melanocortin 4 Receptor and Polypeptides Comprising the Same for the Treatment of MC4R-Related Diseases and Disorders” (Confo Therapeutics N.V., priority 2022, published 2026).

Key:
Experiment in all cases: cell-based or functional assay
[1] = target: human MC5R (melanocortin 5 receptor) (human) (UniProt P33032)
[2] = target: human MC3R (melanocortin 3 receptor) (human) (UniProt P41968)
[3] = target: human wild type MC4R (melanocortin 4 receptor) expressed on HEK293/HEK293T cells (human) (UniProt P32245)
Chain of human wild type MC4R (melanocortin 4 receptor) expressed on HEK293/HEK293T cells (human) (P32245 whole entry): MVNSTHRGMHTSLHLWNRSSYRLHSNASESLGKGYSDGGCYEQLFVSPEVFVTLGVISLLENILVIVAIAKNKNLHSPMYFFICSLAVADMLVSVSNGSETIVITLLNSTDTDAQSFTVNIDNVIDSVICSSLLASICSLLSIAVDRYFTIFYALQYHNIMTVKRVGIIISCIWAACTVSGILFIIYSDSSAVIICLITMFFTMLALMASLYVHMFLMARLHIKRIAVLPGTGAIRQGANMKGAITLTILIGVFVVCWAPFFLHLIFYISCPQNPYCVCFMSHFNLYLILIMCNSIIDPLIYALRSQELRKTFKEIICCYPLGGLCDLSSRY

[4] = target: human MC1R (melanocortin 1 receptor) (human) (UniProt Q01726)
Chain of human MC1R (melanocortin 1 receptor) (human) (Q01726 whole entry): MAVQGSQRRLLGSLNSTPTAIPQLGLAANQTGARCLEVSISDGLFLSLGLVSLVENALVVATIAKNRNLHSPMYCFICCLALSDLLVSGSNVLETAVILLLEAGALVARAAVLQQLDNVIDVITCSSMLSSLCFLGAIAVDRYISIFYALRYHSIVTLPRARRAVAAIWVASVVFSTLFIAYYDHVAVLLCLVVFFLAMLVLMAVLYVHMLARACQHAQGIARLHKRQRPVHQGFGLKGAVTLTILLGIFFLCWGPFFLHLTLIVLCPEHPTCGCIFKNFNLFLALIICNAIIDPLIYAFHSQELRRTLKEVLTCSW

Chain of human MC3R (melanocortin 3 receptor) (human) (P41968 whole entry): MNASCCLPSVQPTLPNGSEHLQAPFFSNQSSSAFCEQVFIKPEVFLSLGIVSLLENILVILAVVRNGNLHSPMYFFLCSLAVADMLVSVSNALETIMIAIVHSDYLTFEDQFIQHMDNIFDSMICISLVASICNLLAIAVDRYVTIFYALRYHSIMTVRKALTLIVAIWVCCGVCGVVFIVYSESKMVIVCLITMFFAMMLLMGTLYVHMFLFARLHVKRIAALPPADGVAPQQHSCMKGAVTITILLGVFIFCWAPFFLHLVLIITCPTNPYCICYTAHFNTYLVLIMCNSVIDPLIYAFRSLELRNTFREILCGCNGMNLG
Chain of human MC5R (melanocortin 5 receptor) (human) (P33032 whole entry): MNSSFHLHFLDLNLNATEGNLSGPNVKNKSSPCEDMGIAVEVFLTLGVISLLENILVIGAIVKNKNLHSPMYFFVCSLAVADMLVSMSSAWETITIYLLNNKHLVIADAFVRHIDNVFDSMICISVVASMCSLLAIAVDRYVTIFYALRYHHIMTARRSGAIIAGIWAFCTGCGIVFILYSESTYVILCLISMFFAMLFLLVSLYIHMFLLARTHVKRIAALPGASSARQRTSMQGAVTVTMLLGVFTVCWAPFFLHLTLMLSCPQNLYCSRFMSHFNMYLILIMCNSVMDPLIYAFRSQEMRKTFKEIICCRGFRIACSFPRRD

in vitro cAMP potency EC50 (GloSensor) [1]: 451 nM
in vitro cAMP potency EC50 (GloSensor) [2]: 2.1 nM
Gs ConfoSensor, 1 mM Ca^2+, EC50 [3]: 0.6 nM
Gs ConfoSensor, No Ca^2+, EC50 [3]: 12 nM
in vitro cAMP potency EC50 (GloSensor) [3]: 2 nM
β-arrestin recruitment, 1 mM Ca^2+, EC50 [3]: 1.3 nM
β-arrestin recruitment, No Ca^2+, EC50 [3]: 18 nM
in vitro cAMP potency EC50 (GloSensor) [4]: 11.5 nM
Substance: setmelanotide (peptide)
